Molecular target: MERTK (UniProt Q12866)
Assay: phosphorylation enrichment, bacterial display (enrichment ratio); higher = better substrate or ligand; peptides without Tyr show the background
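Also: 11-residue human phosphosite peptides and single-mutation variants displayed on the E. coli surface, counted by deep sequencing, each peptide's frequency after selection divided by its frequency in the unselected input library; frequency after pTyr selection over input frequency; kinase dosed for 20-30% of maximal phosphorylation in three min.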

MERTK, sequence (Q12866 whole entry, looked up): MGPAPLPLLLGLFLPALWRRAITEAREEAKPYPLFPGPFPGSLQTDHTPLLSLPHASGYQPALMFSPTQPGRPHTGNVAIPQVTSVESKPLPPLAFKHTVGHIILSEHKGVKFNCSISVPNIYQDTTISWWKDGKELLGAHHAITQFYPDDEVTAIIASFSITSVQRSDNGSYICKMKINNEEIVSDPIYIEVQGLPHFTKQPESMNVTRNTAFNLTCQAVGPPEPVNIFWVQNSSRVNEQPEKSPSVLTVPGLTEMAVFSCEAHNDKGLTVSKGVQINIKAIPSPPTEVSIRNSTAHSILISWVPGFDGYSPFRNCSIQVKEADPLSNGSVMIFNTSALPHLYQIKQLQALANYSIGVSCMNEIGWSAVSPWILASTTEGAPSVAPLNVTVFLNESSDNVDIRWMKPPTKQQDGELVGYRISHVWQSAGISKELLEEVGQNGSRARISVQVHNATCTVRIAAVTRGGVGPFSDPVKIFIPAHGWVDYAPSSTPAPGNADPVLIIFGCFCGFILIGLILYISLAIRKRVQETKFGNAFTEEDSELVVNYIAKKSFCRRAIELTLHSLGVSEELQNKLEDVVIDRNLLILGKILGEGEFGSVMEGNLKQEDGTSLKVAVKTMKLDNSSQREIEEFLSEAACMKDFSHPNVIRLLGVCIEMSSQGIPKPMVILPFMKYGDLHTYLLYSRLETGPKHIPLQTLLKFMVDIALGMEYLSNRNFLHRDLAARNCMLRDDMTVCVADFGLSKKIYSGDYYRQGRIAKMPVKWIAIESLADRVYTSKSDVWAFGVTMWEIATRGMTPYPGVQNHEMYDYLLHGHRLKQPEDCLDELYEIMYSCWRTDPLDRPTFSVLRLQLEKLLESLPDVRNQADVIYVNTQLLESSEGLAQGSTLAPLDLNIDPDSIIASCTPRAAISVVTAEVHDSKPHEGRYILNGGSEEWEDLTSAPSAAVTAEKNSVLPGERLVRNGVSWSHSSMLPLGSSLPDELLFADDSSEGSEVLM

Going from MDDKEYFSVHN [MET_Y1234_Y1230D_YF] to RNDLDYMDSRR [GAA_Y407_W402R], the phosphorylation enrichment rises from 0.447 to 0.528.

Going from PELINCHQHNS [BTK_Y361_Y361C] to KGVDRYNPENL [EIF3K_Y21_I18V], the phosphorylation enrichment falls from 0.712 to 0.402.

First: ANVIRYFPTQA [SLC25A4_Y81]
Second: STQAHYRLSAF [ADAMTS9_Y100_S96T]
The phosphorylation enrichment of the first is higher: 0.546 for the first, 0.409 for the second.

Going from RIVEIYSRSLQ [GCH1_Y175_R178S] to WQQQSYLFSGI [CTNNB1_Y30_D32Y_YF], the phosphorylation enrichment falls from 1.17 to 0.414.

Compared with DSKIRYLSADS [TTF1_Y476_E473K], DVFLKYLNFAT [PDE6B_Y212] is higher in phosphorylation enrichment: 0.435 for the first, 0.647 for the second.

Going from GIVEEYQLPYY [BMPR1A_Y453] to EVESPYEVHDF [GIGYF2_Y1168_YF], the phosphorylation enrichment rises from 0.567 to 0.974.

First: NYYDTCIKTCL [IQGAP2_Y1445_Y1445C]
Second: LWPIWYRCHRP [MRGPRX1_Y130]
The phosphorylation enrichment of the first is higher: 5.87 for the first, 0.804 for the second.

First: MKGDYYRYLAE [YWHAG_Y131]
Second: SGGCSYGSGGG [KRT1_Y539_G537C]
The phosphorylation enrichment of the first is higher: 0.718 for the first, 0.346 for the second.

Going from EYGSGYPNDPK [RNASEH2A_Y210_D205E] to FLLTVYSIFSK [SGCE_Y38], the phosphorylation enrichment rises from 0.425 to 1.17.

First: DNQFAYLKAII [HNF4A_Y288_E285Q_YF]
Second: IVAEFYDNLPH [DEGS1_Y284_A280V_YF]
The phosphorylation enrichment of the first is lower: 0.369 for the first, 0.853 for the second.

Going from ENGPYYASYPP [GDAP2_Y488_T489A] to ELAKFYKLHHI [AK7_Y391_N389K_YF], the phosphorylation enrichment falls from 6.92 to 0.536.

First: DRLAVYIDRVS [LMNA_Y45_R50S]
Second: LKLIQYHLIQQ [AKAP4_Y554_T557I]
The phosphorylation enrichment of the first is lower: 0.33 for the first, 0.774 for the second.

Compared with KGNMYYENSYA [EGFR_Y113_R108K], KTDKKYLMIKE [BAG3_Y451_E455K] is lower in phosphorylation enrichment: 1.17 for the first, 0.408 for the second.

First: YRQLPYCPSVE [CTNND2_Y508_Q507P]
Second: AAVLNYKAWRD [GRIN2A_Y737_G740W]
The phosphorylation enrichment of the first is higher: 0.728 for the first, 0.386 for the second.

For RFLERDIFNRE [HLA-DPB1_Y57_Y57D_YF], the phosphorylation enrichment was 0.548.

Molecular target: Fes (UniProt P07332)
Assay: as above

Fes, sequence (P07332 whole entry, looked up): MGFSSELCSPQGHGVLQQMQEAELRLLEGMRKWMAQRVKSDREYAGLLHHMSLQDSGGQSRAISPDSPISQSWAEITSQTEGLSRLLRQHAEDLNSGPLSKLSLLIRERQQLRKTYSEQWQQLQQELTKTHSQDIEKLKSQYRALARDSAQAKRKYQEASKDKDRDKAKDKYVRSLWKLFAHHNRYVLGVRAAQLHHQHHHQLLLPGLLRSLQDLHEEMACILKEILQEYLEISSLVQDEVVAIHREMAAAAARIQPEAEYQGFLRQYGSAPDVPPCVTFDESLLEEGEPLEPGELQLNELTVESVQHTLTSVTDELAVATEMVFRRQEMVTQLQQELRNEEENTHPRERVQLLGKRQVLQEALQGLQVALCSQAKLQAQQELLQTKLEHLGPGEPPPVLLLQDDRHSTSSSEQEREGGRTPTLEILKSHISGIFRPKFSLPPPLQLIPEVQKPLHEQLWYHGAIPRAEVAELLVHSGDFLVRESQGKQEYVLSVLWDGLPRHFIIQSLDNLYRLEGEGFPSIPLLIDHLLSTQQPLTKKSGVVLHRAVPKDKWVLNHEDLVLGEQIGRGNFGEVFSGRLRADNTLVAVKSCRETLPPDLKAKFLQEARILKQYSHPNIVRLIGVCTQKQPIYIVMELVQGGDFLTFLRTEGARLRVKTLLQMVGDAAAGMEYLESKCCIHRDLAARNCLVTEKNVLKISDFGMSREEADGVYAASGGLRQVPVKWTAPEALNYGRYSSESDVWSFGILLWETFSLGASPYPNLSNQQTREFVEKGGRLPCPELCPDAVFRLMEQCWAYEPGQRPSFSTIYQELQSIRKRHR

First: MDDKEYFSVHN [MET_Y1234_Y1230D_YF]
Second: RNDLDYMDSRR [GAA_Y407_W402R]
The phosphorylation enrichment of the first is higher: 1.03 for the first, 0.81 for the second.

Compared with PELINCHQHNS [BTK_Y361_Y361C], KGVDRYNPENL [EIF3K_Y21_I18V] is lower in phosphorylation enrichment: 1.04 for the first, 0.466 for the second.

Compared with ANVIRYFPTQA [SLC25A4_Y81], STQAHYRLSAF [ADAMTS9_Y100_S96T] is lower in phosphorylation enrichment: 0.648 for the first, 0.63 for the second.

Going from RIVEIYSRSLQ [GCH1_Y175_R178S] to WQQQSYLFSGI [CTNNB1_Y30_D32Y_YF], the phosphorylation enrichment falls from 1.95 to 0.928.

First: DSKIRYLSADS [TTF1_Y476_E473K]
Second: DVFLKYLNFAT [PDE6B_Y212]
The phosphorylation enrichment of the first is lower: 0.663 for the first, 1.29 for the second.

Going from GIVEEYQLPYY [BMPR1A_Y453] to EVESPYEVHDF [GIGYF2_Y1168_YF], the phosphorylation enrichment rises from 1.06 to 1.3.

Compared with NYYDTCIKTCL [IQGAP2_Y1445_Y1445C], LWPIWYRCHRP [MRGPRX1_Y130] is higher in phosphorylation enrichment: 1.07 for the first, 1.63 for the second.

Going from MKGDYYRYLAE [YWHAG_Y131] to SGGCSYGSGGG [KRT1_Y539_G537C], the phosphorylation enrichment rises from 0.89 to 0.916.

Going from EYGSGYPNDPK [RNASEH2A_Y210_D205E] to FLLTVYSIFSK [SGCE_Y38], the phosphorylation enrichment rises from 0.794 to 1.05.

Going from DNQFAYLKAII [HNF4A_Y288_E285Q_YF] to IVAEFYDNLPH [DEGS1_Y284_A280V_YF], the phosphorylation enrichment falls from 1.33 to 0.891.

Compared with ENGPYYASYPP [GDAP2_Y488_T489A], ELAKFYKLHHI [AK7_Y391_N389K_YF] is higher in phosphorylation enrichment: 0.735 for the first, 0.762 for the second.

Compared with DRLAVYIDRVS [LMNA_Y45_R50S], LKLIQYHLIQQ [AKAP4_Y554_T557I] is higher in phosphorylation enrichment: 0.953 for the first, 1.67 for the second.

First: KGNMYYENSYA [EGFR_Y113_R108K]
Second: KTDKKYLMIKE [BAG3_Y451_E455K]
The phosphorylation enrichment of the first is lower: 0.77 for the first, 0.877 for the second.

Going from YRQLPYCPSVE [CTNND2_Y508_Q507P] to AAVLNYKAWRD [GRIN2A_Y737_G740W], the phosphorylation enrichment falls from 1.53 to 0.656.

RFLERDIFNRE [HLA-DPB1_Y57_Y57D_YF] was tested, and the phosphorylation enrichment was 1.01.

Reference: the supplement of paper PMC10065799, “High-throughput profiling of sequence recognition by tyrosine kinases and SH2 domains using bacterial peptide display” (eLife, 2023)
